Assays:
[1] = biological target: T1, synthetic Aβ35 peptide (UniProt P05067 672-706); test: SPR (Biacore T200), single-cycle kinetics, peptide as analyte (7.8-2000 nM) over mab34 captured on an anti-mouse Fc sensor
T1 construct: domain: Aβ35
Protocol: (§1) Using a BIACORE T200 system (GE Healthcare Bio-Sciences AB, Upsala, Sweden; v2.0 Control and v1.0 Evaluation software), SPR experiments were performed at 25° C. using filtered (0.2 μm) and degassed HBS-EP+ buffer (10 mM HEPES pH 7.4; 150 mM NaCl; 3 mM EDTA; 0.05% (v/v) Tween™-20). Using Biacore's Amine Coupling Kit, Mouse Antibody Capture Kit, and CM5 sensors, an anti-mouse Fc antibody (14 μg/mL in 10 mM sodium acetate pH 5.0) was immobilized to the flow cells (8000 RU each) as recommended by GE. To assess binding specificity, a variety of Aβ peptides (0 2 μM; 4-fold dilution series) were titrated over reference (anti-mouse Fc antibody only) and active (1000 RU mab34 captured to anti-mouse Fc antibody) surfaces in single-cycle kinetic mode (25 uL/min.×5 min. association+10 min. dissociation). Between each sample series, surfaces were regenerated at 50 μL/min. using two 30 sec pulses of Pierce Gentle Ag/Ab Elution Buffer pH 6.6 (Thermo Scientific #21027) as well as 10 mM glycine pH 1.7.

[2] = biological target: T2, synthetic Aβ38 peptide (UniProt P05067 672-709); test: as above
T2 construct: domain: Aβ38
T2 sequence (P05067 672-709 limits assumed): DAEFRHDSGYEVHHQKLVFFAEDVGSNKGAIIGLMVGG
Protocol: as §1

[3] = biological target: T3, synthetic Aβ40 peptide (UniProt P05067 672-711); test: as above
T3 construct: domain: Aβ40
T3 sequence (P05067 672-711 limits assumed): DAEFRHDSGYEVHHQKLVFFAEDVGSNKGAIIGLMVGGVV
Protocol: as §1

[4] = biological target: T4, synthetic Aβ42 peptide (UniProt P05067 672-713); test: as above
T4 construct: domain: Aβ42; also called Abeta42
T4 sequence (P05067 672-713 limits assumed): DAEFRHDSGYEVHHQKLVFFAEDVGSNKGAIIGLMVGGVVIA
Protocol: as §1

[5] = biological target: Aβ34 G33A variant (G33A modified neo-epitope); test: SPR (Biacore T200), single-cycle kinetics, Aβ34 variant peptide as analyte (7.8-2000 nM) over mab34 captured on an anti-mouse Fc sensor
Aβ34 G33A variant (G33A modified neo-epitope), sequence (peptide, as listed by the source G33A G33A G33A G33A): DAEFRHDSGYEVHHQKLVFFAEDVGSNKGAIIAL
Protocol: as §1

[6] = biological target: T5, synthetic Aβ34 peptide; test: SPR (Biacore T200), multi-cycle titration of Aβ34 (0-1.6 µM, 3-fold series) over mab34 captured on an anti-mouse Fc sensor; steady-state affinity fit of Requilibrium against concentration
T5 construct: Synthetic peptide from PSL, Germany
T5 sequence (peptide, as listed by the source): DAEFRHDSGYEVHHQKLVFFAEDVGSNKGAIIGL
Protocol: as §1, with “To assess binding specificity, a variety of Aβ peptides (0 2 μM; 4-fold dilution series) were titrated over reference (anti-mouse Fc antibody only) and active (1000 RU mab34 captured to anti-mouse Fc antibody) surfaces in single-cycle kinetic mode (25 uL/min.×5 min. association+10 min. dissociation).” left out

T1 sequence (P05067 672-706 limits assumed): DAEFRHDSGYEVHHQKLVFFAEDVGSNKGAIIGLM

binding result [1]: no binding (tested: 2000 nM) | binding result [2]: no binding (tested: 2000 nM) | binding result [3]: no binding (tested: 2000 nM) | binding result [4]: no binding (tested: 2000 nM) | binding result [5]: no binding (tested: 2000 nM) | Kd [6]: ~40 nM
B1: mab34 (monoclonal neo-epitope anti-Aβ34 antibody) (antibody, V domains shown)
VH: VKLVESGGGLVKPGGSLKLSCAASGFTFSTYAMSWVRQTPEKRLEWVASISSGGNTYYPDSVKGRFTISRDNARHILYLQMSSLRSEDTAMYYCARDSYYFGNSVYYAMDYWGQGTSVTVSS
VL: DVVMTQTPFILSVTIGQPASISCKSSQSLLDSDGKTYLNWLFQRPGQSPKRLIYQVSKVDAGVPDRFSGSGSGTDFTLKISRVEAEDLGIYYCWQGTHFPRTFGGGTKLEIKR
notes: Mouse monoclonal from a hybridoma (Balb/cJ mice immunised with Aβ27-34-KLH); In SPR it was captured on an anti-mouse Fc surface
